2 molecules from paper PMC9226187, “Probing TDP-43 condensation using an in silico designed aptamer” can be followed below.

This data set has as its target TDP-43 RRM1-2 (UniProt Q13148 102-269). The data set can be described thus: BLI; BLI: 10 mM potassium phosphate pH 7.2, 150 mM KCl, 0.01% Tween20, 25 °C; biotin-RNA on streptavidin sensors, protein 20 nM-20 µM; PAINT in PBS. The settings on record: protein: recombinant, tags: His6-SUMO tag cleaved (TEV).

Sequence of TDP-43 RRM1-2 (Q13148 102-269): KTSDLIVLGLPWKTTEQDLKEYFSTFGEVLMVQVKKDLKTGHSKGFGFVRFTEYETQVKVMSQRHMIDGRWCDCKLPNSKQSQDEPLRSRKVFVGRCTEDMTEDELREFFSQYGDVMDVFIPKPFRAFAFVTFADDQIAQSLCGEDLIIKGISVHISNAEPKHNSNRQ

B1: nApt-1 (ssRNA)
RNA: AGCAACACCG
In general, Kd refers to a measure of binding affinity in units of concentration. Regarding B1, the Kd (label: 5' biotin) stood at 1730 nM.

B2: Apt-1 (ssRNA)
RNA: CGGUGUUGCU
On to B2, for which the Kd (label: 3' biotin, linear, single-stranded) is 100 ± 10 nM.
